Results reported in the DeepSol protein solubility set.

Assay: soluble on expression in E. coli; label from the status in PepcDB or PDB records

Soluble on expression in E. coli, not soluble:
MAHHHHHHMSLAGQFTTFCRTHEQPMNEESCAVFLMAIEVAPSTRQQYARMLRSMLEMNRTPLDMVILGLQKIASRSETKQTRPSTKERGGRMYPQPDRLEGTCCLTTCVDNGELLVRGFGLDFQQFHTGVGRGLSFGLARGAEDGEGGSIPRLAVREDTRAGRLRQYKAMQDTSRKRKAYEAYDCTGDTISGSLGCHGAFHKTGSVEARCSNRGDMRFGPARGLAVGEARRPVRPSPEYCSIFGEIHHNADPGVVIDRIDVKGETAEGQELWLRAEERFFHDFNHNHAATITRRATRTRPTTPQNEHAIPLQQVNVPVLNLEWIQIRLNPATLERLMQVWGLVGRSPFPLSSSGKAREGSRSIPTADARLLNAAGIIEDASSTITGGWIIPFFGCGGENHRFTTTMDRVATRQEQRRAL
MTSASAPSFNPGKGPGSAVGIALLGFGTVGTEVMRLMTEYGDELAHRIGGPLEVRGIAVSDISKPREGVAPELLTEDAFALIEREDVDIVVEVIGGIEYPREVVLAALKAGKSVVTANKALVAAHSAELADAAEAANVDLYFEAAVAGAIPVVGPLRRSLAGDQIQSVMGIVNGTTNFILDAMDSTGADYADSLAEATRLGYAEADPTADVEGHDAASKAAILASIAFHTRVTADDVYCEGISNISAADIEAAQQAGHTIKLLAICEKFTNKEGKSAISARVHPTLLPVSHPLASVNKSFNAIFVEAEAAGRLMFYGNGAGGAPTASAVLGDVVGAARNKVHGGRAPGESTYANLPIADFGETTTRYHLDMDVEDRVGVLAELASLFSEQGISLRTIRQEERDDDARLIVVTHSALESDLSRTVELLKAKPVVKAINSVIRLERD
MTAYINQEAAAKLDEVFPLAELALKAYGPEFQGELSLLTHSENSTYLVNAFSGQRFVMRVHRAHYHSRTAIESELAWLDALADEGMEVPKAIAGRDGAKVQTIGDGHAERREVVLFHWINGYQPDQSQQESLIQGFRRLGEITAGLHIHARQWQRPHWFERRLMVGAHAAWGNWQKAPYLDKPGAAIIGKALDKVRMELNEYGNAADLFGLIHADLRLTNLLVEEEITRIIDFDDCGFSWFMHDLAAAVSFIEHSPCLNEWVGSWVNGYSTVLPLSAADHAVIPALITQRRVQLLAWTGTHQGAPQADGLGNIWVVQTIELCEKYLANTLLDCKSIS
MEVTNGLNLKDTELRLGLPGAQEEQQLELSCVRSNNKRKNNDSTEESAPPPAKTQIVGWPPVRSNRKNNNNKNVSYVKVSMDGAPYLRKIDLKMYKNYPELLKALENMFKFTVGEYSEREGYKGSGFVPTYEDKDGDWMLVGDVPWDMFSSSCQKLRIMKGSEAPTAL
MAGSKKSNRREEILQALAQMLESAEGASRITTAKLAKQVGVSEAALYRHFPSKARMFEGLIEFIEEALMTRINRILDDEKDTLERIRMVMHLILAFSERNPGLTRILSGHALMFENERLRERINQLFERIETQLRQILRERKIREGKSFPVEERILAAQILGQVEGSLNRFVRSDFKYQPTANFDEYWALLSAQIK
MSFQVSVAVNDGPFQKKSVTPNTTIGDLNNDAILIWKDTAIVYDISDESKNFGPTVTLEQLGVTQISMVYIYTTAFPCPSGDLRSIVPAQVRLISQFASAASSIFNGQSSSSAQSAQRTRRVEQDDEGEKSMFSRKLLDSPATFKALSENMFFRLKNEPHKLGYGLPELVERFLAKKDMTYKEFEQMFRSYVEEEVHKEEIIKNNPNSAEAKMFLEAKRNKELIDEQYLHSMTHHPEDMIAVTMLYINLTINGVPVKAFIDSGAQKSIMSMACAERCGLNGLIDRRFQSMARGVGGTEKIEGKIHLCDVKVEDAHFSCPFEVMARREMDLLIGLNVLRKHGCCINLKTSRLEFGNGTTTPFLQSNEIDSHLKEIMALPEEEMQFEDGST
MGSDKIHHHHHHMQPSATDSTISAGTQPHIVYSERASAPGPLLVFIPGTGGKTPKTAETEQAFIGTALAHGYRVIILSYIDTPAIAQVCTKRVLANDPACAEQVRQKRAFGDDTTARIDDAPQDAIVHRLNALIRYLAAHNAGDHWEQYLAGERLNWRAIVLSGQSQGGGMAAYIAKRIAIRGVIDFSGGWDMRSDSDIASWYSAPSATPPERWYGTYHADERFASAIAASYRAMNIPVSHQFSLSEPVRHPEGKNPGHGEGASNPVYRGIWETMLTGLE
MGSDKIHHHHHHMVSEQVRERAKAGPIPKADYQALFDALEAERSPRDPEWVQAWIILHCATRQRAFACQRLLSRYNRQCVKRGTMGEYSEFLRHVQDDLGFYLPNGNAYTENFRGVDVGEIMAQCGELAARFAELELEVFANSGTLLGIVREGTLLEHDNDIDLGVLLTARTFEGAAQEWIALTDKLIADGVGVSRSTWSKVTLKLQKIGAFGVDLFPAWIDADDKVYVYPHTFGALRRDQLLPYDLHGPTGLHLPADAEAMLECNYGEGWRVPNVGWGFDWKTANAQFEAFLTAVEAAAAPD
EQQADGTWLMDGWISIRKASNLLEHDLVDEAERYSTLGGYLLWQFGYIPAAGEQITVDGLIFEIVSVNKHNIGKVRVHRTQPENE
MLPSKYEDNALQIKEKSTERTAPFFVLEVTARSAADILGIHPNSAALFYRKIRTVINHHLALAADEVFEGPVEPDESDFGGRRKGRRGRGAAGKVVVFGILKRNGRVYTVVVDNAKSETLLPVIKKKIMPDSIVYTDSLSSYDKLDVSGFIHYRINHSKECADRQNHINGIENFWNQAKRVLRKYNGIDRKSFPLFLKECEFRFNFGTPSQQLKILRDWCGILEHHHHHH
SDIEHILTAIAVLLEKRLDYDRGVIMMADAGGSALRVLASYGFDEAGRRVMHETPIALDGVGPRGVVAASFLDQKPFLVNDLDEINHLIPPLHRELGRRLGIRSFISCPIVCEGQSLGVLAVDTIRTG
MKTPVCSEEQGPARDVIAQLLEDALQVESQEQPEQAFVKPHLVSEFDIYGFRTVPDDDEEEKLVAKVRALDLKTLYLTDNQEVSTGVKWENYFASTMNREMACSPELKNLIRAGIPHEHRSKVWKWCVDRHTRKFKDSMEPDYFQTLLQKALEKQNPASKQIELDLLRTLPNNKHYSSPTSEGIQKLRSVLLAFSWRNPDIGYCQGLNRLVAVALLYLDQEDAFWCLVTIVEVFMPRDYYTKTLLGSQVDQRVFRDLLSEKLPRLHTHFEQYKVDYTLITFNWFLVVFVDSVVSDILFKIWDSFLYEGPKVIFRFALALFKYKEEEILKLQDSMSIFKYLRYFTRTILDARKLISISFGDLNPFPLRQIRNRRAYHLEKVRLELTELEAIREDFLRERDTSPDKGELVSDEEEDT
MSLTHEEAVAIHKEKMEALEMQMKLILVLDLDQTVLHTTYGTSSLEGTVKFVIDRCRYCVKLRPNLDYMLRRISKLYEIHVYTMGTRAYAERIVEIIDPSGKYFDDRIITRDENQGVLVKRLSRLFPHDHRNIVILDDRPDVWDYCENLVLIRPFWYFNRVDINDPLRLKRKIEKEAGENKALEEGHHHHHH
MITLEQKLEQYKHTYVQLKGELKWKTSDSRTGMMIAAMYAGSDKLFDLGRFLEISSYIKNQVGMFSYLKSYHRFVVAATLDIHFTDYKEAFRKFLDLYEQLVTGGFSRSIFTYLAAAVLLTEENEQHGAHIQRSMQVYKRMKKDHLFLTSTNDYPLAVLLAGQSEHVETLMDRVERLYQKLATAGLRKGNDLQFLSHILSLKKDVREELLVAKCTNIWNLLKQEKVKVKQMHYPAIGLLALLEDGEKEIHSIRAFIEKLQGDKLFRWHTDTNILIAIQLFVSQKGEESKATNTGLQTMIEVLIQAQQAAMMATIAASSAATSSASSSS
MLYVVGIGPGNEEYFTKEAENALNSVDLIVCYTGYKKYIERFDTEIYVSGMTKEVERVEYALKEAENKNVALVSNGDATIYGLASLAYELNEKNLHNVTINVVSGL
VARAVGKENKSEFGVPSVVEMRPPALCEGCGHRDMYITLTEVLKEEYPSHKVFSDIGCYTLGANAPFNAINSCVDMGASITMAKGAADGGLHPSVAVIGDSTFTHSGMTGLLDCVNENANVVIVISDNETTAMTGGQDSAGTGRIESICIGLGVDPAHIRVVVPLKKNHEEMRQIIREEIEYNGVSVIIPRRECIQTLARKKRSK

Soluble on expression in E. coli, soluble:
GPGSMTYKLLAPLHPESARAQKIMVAAAYANVDVELKVCQYGQENETPEFARNCSPCMRFPSMQTEEGYLFESNAIMRHIARVEKSGAKLYGATPFESSQVDMWLDFASSELDAHNTPYLMETFAGIPAPESAMATLEESLAGLELWLETRTFLVGERMTVADISVAFALQWVYRMNVKHGEELTKKYRNAYRLYNTVMQQPKTVEVLKQWGATFGPAKAPKKAAEAKPKEGKKPKEAVEDEEEQPAKEEKKSNPLDALPPSSFVLDAYKREYSNTDTRTVAAPYFFEHYDAEGYTCFWARYKYNEDNKKQFMTANLVRGWFQRMEHVRKYAFGVALIIGEDAAHELVSFWVFRGKGMPEIVSEVVDTELFEWEEIKDVQAAKEKITDYLCWEGPTIPRPVLEGRCFK
GPLGSPEFPGEFYIPPEPSNDAIEIFSSGIASGIHFSKYNNIPVKVTGSDVPQPIQHFTSADLRDIIIDNVNKSGYKIPTPIQKCSIPVISSGRDLMACAQTGSGKTAAFLLPILSKLLEDPHELELGRPQVVIVSPTRELAIQIFNEARKFAFESYLKIGIVYGGTSFRHQNECITRGCHVVIATPGRLLDFVDRTFITFEDTRFVVLDEADRMLDMGFSEDMRRIMTHVTMRPEHQTLMFSATFPEEIQRMAGEFLKNYVFVAIGIVGGACSDVKQTIYEVNKYAKRSKLIEILSEQADGTIVFVETKRGADFLASFLSEKEFPTTSIHGDRLQSQREQALRDFKNGSMKVLIATSVASRGLDIKNIKHVINYDMPSKIDDYVHRIGRTGRVGNNGRATSFFDPEKDRAIAADLVKILEGSGQTVPDFLRTC
MADHNNTPPFDLTKLDHYIKYQPREEAEDFFVHVEVKVLGKGSSPLEISFSTSVYEFVWEDEDCYELVELYEFFTEDAGIDAFEAQFLVNDLILYVNKTTRPLDEDFTGVFKLMAEVTLKPVQLNHAGSQKTESQQP
MGHHHHHHGSSIETDRVSKEFIEFLKTFHKTGQEIYKQTKLFLEGMHYKRDLSIEEQSECAQDFYHNVAERMQTRGKVPPERVEKIMDQIEKYIMTRLYKYVFCPETTDDEKKDLAIQKRIRALRWVTPQMLCVPVNEDIPEVSDMVVKAITDIIEMDSKRVPRDKLACITKCSKHIFNAIKITKNEPASADDFLPTLIYIVLKGNPPRLQSNIQYITRFCNPSRLMTGEDGYYFTNLCCAVAFIEKLDAQSLNLSQEDFDRYMSGQTSPRKQ
MSLNKIDMPVLNVKMVPVEKIKSNSYNPNHVAGPEMELLELSILKDGYTQPIVCYCDDKKDEYIIIDGFHRYLIGKSKLDLKELPVVVIDKPLEQRMSSTIRHNRARGKHEIDKMSELVLLLVNEGWDDHKIGKELGMEKEEVLRLKQVTGLKSAFLNHEFSESWDEFVKKNYPKQKDEEGGSHHHHHH
SSSPPEGKLETKAGHPPAVKAGGMRIVQKHPHTGDGKEERDKDDQEWESTSPPKPTVFISGVIARGDKDFPPAAAQVAHQKPHASMDKHVSPRTQHIQQPRK
KENGKRTEVKIGAKTSVMKEKDGKLFTGKANKETNKVDGANATEDADEGKGLVTAKDVIDAVNKTGWRIKTTDANGQNGDFATVASGTNVTFASGNGTTATVTNGTDGITVKYDAK
SHSLGWIFGMPCNQRSSTKASCEEVFDPTEESYLNIETSL
